Test results: paper PMC11241375, “In Silico Screening of Bioactive Peptides in Stout Beer and Analysis of ACE Inhibitory Activity” (Foods, 2024)
Where two headings read alike, the source gives them in different places. No end group written: not given here.

Columns and labels:
[1] = target: T1, ACE (Homo sapiens, UniProt P12821); test: ACEI activity in vitro (ACE activity assay kit); format: biochemical; settings: 10 μL ACE + 40 μL inhibitor + 50 μL substrate, fluorescence ex 320 nm/em 405 nm, 37 °C, 30 min, synthesized peptide, triplicate, mean ± SD
T1 construct: purchased Sigma-Aldrich
Experimental: ACEI activity determination was determined using an assay kit. Briefly, 10 μL of ACE and 40 μL of the inhibitor were added to the microplate and mixed thoroughly, then 50 μL of the substrate was added to start the reaction. The fluorescence was detected at an excitation wavelength of 320 nm and an emission wavelength of 405 nm at 37 °C for 30 min. The ACE activity of the peptide was calculated as follows:ACEI activity = [(KStd − KSample)/KStd] × DF × 100% where KSample means the slope of the sample curve after subtracting the blank. (RFU/min); KStd means the slope of the standard curve after subtracting the blank (RFU/min); DF means the dilution factor.
Each experiment was conducted in triplicate, the data were presented as mean ± standard deviation. SYBYL-X 2.1.1 software was utilized for evaluating the molecular docking visualization. LigPlot 1.4.5 software was employed to illustrate the 2D interactions. MD simulation data analysis was performed using GROMACS 2022.3 software.

[2] = target: T1, ACE; settings: cited from earlier work
Excerpt: Recently, several ACEI peptides have been identified and evaluated in brewed wine. Wu et al. discovered a polypeptide in Chinese Baijiu for the first time, which indicated an ACE inhibitory effect with an IC50 of […] [11]. […] Beer is one of the most globally cons ... || In this study, peptides in stout beer were identified using UPLC-Q-Orbitrap-MS^2, and a total of 41 peptides with ALC ≥ 85% were selected (Table 1). The peptides PMAPLPRSGPE and […] from Italian beer, LPQQQAQFK, STEWHLD, PPPVHD, LVLPGELAK, LAVMQQQQQQ, PPPVHDTD, PPVPHDTD, LPEDAKVE, HAVSEGTKAVT, LPGELAK, PMAPLPRSGEP, TVSGF, LNFDPNR, LALDTRVG, LDTRVGV, and RVALVY from draft beer, which were previously identified, also appeared in our results. The polypeptides present in beer primarily originate from malt protein. Previous studies have shown that the soluble protein content in m ...

[3] = peptides identified from Qingke Baijiu
[4] = known ACEI peptides in BIOPEP/AHTPDB

T1 sequence (P12821 30-1306, species assumed): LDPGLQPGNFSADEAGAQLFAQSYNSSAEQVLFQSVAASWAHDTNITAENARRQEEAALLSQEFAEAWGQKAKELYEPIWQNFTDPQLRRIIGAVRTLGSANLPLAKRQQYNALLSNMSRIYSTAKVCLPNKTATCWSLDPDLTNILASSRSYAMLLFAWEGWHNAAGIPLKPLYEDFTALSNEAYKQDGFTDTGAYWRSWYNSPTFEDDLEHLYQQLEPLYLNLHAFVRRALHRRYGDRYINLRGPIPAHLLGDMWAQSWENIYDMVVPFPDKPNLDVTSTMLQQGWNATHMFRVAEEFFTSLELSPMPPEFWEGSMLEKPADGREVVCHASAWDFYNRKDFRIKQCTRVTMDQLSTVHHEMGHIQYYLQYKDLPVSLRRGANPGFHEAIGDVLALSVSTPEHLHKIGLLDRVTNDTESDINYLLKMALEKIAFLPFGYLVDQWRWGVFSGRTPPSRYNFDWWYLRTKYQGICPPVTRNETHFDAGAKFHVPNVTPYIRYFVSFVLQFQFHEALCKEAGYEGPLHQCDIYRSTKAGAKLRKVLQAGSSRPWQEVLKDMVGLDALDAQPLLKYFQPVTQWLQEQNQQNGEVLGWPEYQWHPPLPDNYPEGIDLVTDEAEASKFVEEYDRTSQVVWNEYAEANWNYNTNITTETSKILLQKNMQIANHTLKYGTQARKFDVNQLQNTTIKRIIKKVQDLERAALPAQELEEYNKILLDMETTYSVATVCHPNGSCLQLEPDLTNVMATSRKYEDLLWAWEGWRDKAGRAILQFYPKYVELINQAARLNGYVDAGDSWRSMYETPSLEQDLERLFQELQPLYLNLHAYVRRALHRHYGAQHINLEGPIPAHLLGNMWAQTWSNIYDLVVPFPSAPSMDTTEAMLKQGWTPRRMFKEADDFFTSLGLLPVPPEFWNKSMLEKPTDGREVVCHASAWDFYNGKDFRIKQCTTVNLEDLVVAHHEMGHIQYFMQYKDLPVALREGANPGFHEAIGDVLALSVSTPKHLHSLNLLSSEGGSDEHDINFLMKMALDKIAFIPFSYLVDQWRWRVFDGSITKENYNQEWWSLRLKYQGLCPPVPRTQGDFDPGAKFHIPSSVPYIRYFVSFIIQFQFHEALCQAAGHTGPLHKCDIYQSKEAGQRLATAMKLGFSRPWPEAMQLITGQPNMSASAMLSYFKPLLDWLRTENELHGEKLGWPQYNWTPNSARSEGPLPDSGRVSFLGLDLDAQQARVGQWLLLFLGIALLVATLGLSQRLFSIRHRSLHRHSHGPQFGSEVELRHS

Substance | IC50 [2, 3] [µM] | IC50 [2, 4] [µM] | other results
DLGGFFGFQR [DLGGFFGFQR] | – | – | IC50 [1]: 24.5 µM
FPLQPHQP [peptide from Qingke Baijiu, reference compound] | 5.03 | – | –
LNFDPNR [peptide of stout beer; already known ACEI peptide] | – | 38.6 | –
LPQQQAQFK [peptide of stout beer; already known ACEI peptide] | – | 26.4 | –
LPVGP [peptide from Qingke Baijiu, reference compound] | 9.05 | – | –
